This note sets out measurements from patent publication US20020123082A1 (NEW YORK UNIVERSITY, published 2002).

The chains are these.
B1: Flag-tagged FBP1 (other, not shown: small tags and cut ends)
chain: MDPAEAVLQEKALKFMNSSEREDCNNGEPPRKIIPEKNSLRQTYNSCARLCLNQETVCLASTAMKTENCVAKTKLANGTSSMIVPKQRKLSASYEKEKELCVKYFEQWSESDQVEFVEHLISQMCHYQHGHINSYLKPMLQRDFITALPARGLDHIAENILSYLDAKSLCAAELVCKEWYRVTSDGMLWKKLIERMVRTDSLWRGLAERRGWGQYLFKNKPPDGNAPPNSFYRALYPKIIQDIETIESNWRCGRHSLQRIHCRSETSKGVYCLQYDDQKIVSGLRDNTIKIWDKNTLECKRILTGHTGSVLCLQYDERVIITGSSDSTVRVWDVNTGEMLNTLIHHCEAVLHLRFNNGMMVTCSKDRSIAVWDMASPTDITLRRVLVGHRAAVNVVDFDDKYIVSASGDRTIKVWNTSTCEFVRTLNGHKRGIACLQYRDRLVVSGSSDNTIRLWDIECGACLRVLEGHEELVRCIRFDNKRIVSGAYDGKIKVWDLVAALDPRAPAGTLCLRTLVEHSGRVFRLQFDEFQIVSSSHDDTILIWDFLNDPAAQAEPPRSPSRTYTYISR
notes: Flag tag at the C-terminus in the pcDNA3 constructs (HeLa, 293 cells); also called Flag-FBP1
B2: Flag-tagged FBP4 (other, not shown: small tags and cut ends)
chain: MAGSEPRSGTNSPPPPFSDWGRLEAAILSGWKTFWQSVSKDRVARTTSREEVDEAASTLTRLPIDVQLYILSFLSPHDLCQLGSTNHYWNETVRNPILWRYFLLRDLPSWSSVDWKSLPYLQILKKPISEVSDGAFFDYMAVYLMCCPYTRRASKSSRPMYGAVTSFLHSLIIPNEPRFALFGPRLEQLNTSLVLSLLSSEELCPTAGLPQRQIDGIGSGVNFQLNNQHKFNILILYSTTRKERDRAREEHTSAVNKMFSRHNEGDDRPGSRYSVIPQIQKLCEVVDGFIYVANAEAHKRHEWQDEFSHIMAMTDPAFGSSGRPLLVLSCISQGDVKRMPCFYLAHELHLNLLNHPWLVQDTEAETLTGFLNGIEWILEEVESKRAR
notes: pcDNA3 construct, Flag tag at the C-terminus
B3: Flag-tagged FBP7 (other, not shown: small tags and cut ends)
chain: MSNTRFTITLNYKDPLTGDEETLASYGIVSGDLICLILHDDIPPPNIPSSTDSEHSSLQNNEQPSLATSSNQTSIQDEQPSDSFQGQAAQSGVWNDDSMLGPSQNFEAESIQDNAHMAEGTGFYPSEPLLCSESVEGQVPHSLETLYQSADCSDANDALIVLIHLLMLESGYIPQGTEAKALSLPEKWKLSGVYKLQYMHHLCEGSSATLTCVPLGNLIVVNATLKINNEIRSVKRLQLLPESFICKEKLGENVANIYKDLQKLSRLFKDQLVYPLLAFTRQALNLPNVFGLVVLPLELKLRIFRLLDVRSVLSLSAVCRDLFTASNDPLLWRFLYLRDFRDNTVRVQDTDWKELYRKRHIQRKESPKGRFVLLLPSSTHTIPFYPNPLHPRPFPSSRLPPGIIGGEYDQRPTLPYVGDPISSLIPGPGETPSQLPPLRPRFDPVGPLPGPNPILPGRGGPNDRFPFRPSRGRPTDGRLSFM
notes: Expressed in HeLa cells
B4: Flag-tagged FBP3a (other, not shown: small tags and cut ends)
chain: MKRGGRDSDRNSSEEGTAEKSKKLRTTNEHSQTCDWGNLLQDIILQVFKYLPLLDRAHASQVCRNWNQVFHMPDLWRCFEFELNQPATSYLKATHPELIKQIIKRHSNHLQYVSFKVDSSKESAEAACDILSQLVNCSLKTLGLISTARPSFMDLPKSHFISALTVVFVNSKSLSSLKIDDTPVDDPSLKVLVANNSDTLKLLKMSSCPHVSPAGILCVADQCHGLRELALNYHLLSDELLLALSSEKHVRLEHLRIDVVSENPGQTHFHTIQKSSWDAFIRHSPKVNLVMYFFLYEEEFDPFFRYEIPATHLYFGRSVSKDVLGRVGMTCPRLVELVVCANGLRPLDEELIRIAERCKNLSAIGLGECEVSCSAFVEFVKMCGGRLSQLSIMEEVLIPDQKYSLEQIHWEVSKHLGRVWFPDMMPTW
notes: as for B2
B5: Flag-tagged FBP2 (other, not shown: small tags and cut ends)
chain: MERKDFETWLDNISVTFLSLTDLQKNETLDHLISLSGAVQLRHLSNNLETLLKRDFLKLLPLELSFYLLKWLDPQTLLTCCLVSKQWNKVISACTEVWQTACKNLGWQIDDSVQDALHWKKVYLKAILRMKQLEDHEAFETSSLIGHSARVYALYYKDGLLCTGSDDLSAKLWDVSTGQCVYGIQTHTCAAVKFDEQKLVTGSFDNTVACWEWSSGARTQHFRGHTGAVFSVDYNDELDILVSGSADFTVKVWALSAGTCLNTLTGHTEWVTKVVLQKCKVKSLLHSPGDYILLSADKYEIKIWPIGREINCKCLKTLSVSEDRSICLQPRLHFDGKYIVCSSALGLYQWDFASYDILRVIKTPEIANLALLGFGDIFALLFDNRYLYIMDLRTESLISRWPLPEYRESKRGSSFLAGEHPG
notes: as for B2
B6: Flag-tagged (ΔF)FBP1 (other, not shown: small tags and cut ends)
chain: MDPAEAVLQEKALKFMNSSEREDCNNGEPPRYRVTSDGMLWKKLIERMVRTDSLWRGLAERRGWGQYLFKNKPPDGNAPPNSFYRALYPKIIQDIETIESNWRCGRHSLQRIHCRSETSKGVYCLQYDDQKIVSGLRDNTIKIWDKNTLECKRILTGHTGSVLCLQYDERVIITGSSDSTVRVWDVNTGEMLNTLIHHCEAVLHLRFNNGMMVTCSKDRSIAVWDMASPTDITLRRVLVGHRAAVNVVDFDDKYIVSASGDRTIKVWNTSTCEFVRTLNGHKRGIACLQYRDRLVVSGSSDNTIRLWDIECGACLRVLEGHEELVRCIRFDNKRIVSGAYDGKIKVWDLVAALDPRAPAGTLCLRTLVEHSGRVFRLQFDEFQIVSSSHDDTILIWDFLNDPAAQAEPPRSPSRTYTYISR
notes: pcDNA3 construct, Flag tag at the C-terminus; also called Flag-tagged (deltaF)FBP1
B7: human F-box protein FBP1 (other)
chain: B1 chain
B8: human F-box protein FBP3a (other)
chain: B4 chain
B9: human F-box protein FBP5 (other)
chain: MSRRPCSCALRPPRCSCSASPSAVTAAGRPRPSDSCKEESSTLSVKMKCDFNCNHVHSGLKLVKPDDIGRLVSYTPAYLEGSCKDCIKDYERLSCIGSPIVSPRIVQLETESKRLHNKENQHVQQTLNSTNEIEALETSRLYEDSGYSSFSLQSGLSEHEEGSLLEENFGDSLQSCLLQIQSPDQYPNKNLLPVLHFEKVVCSTLKKNAKRNPKVDREMLKEIIARGNFRLQNIIGRKMGLECVDILSELFRRGLRHVLATILAQLSDMDLINVSKVSTTWKKILEDDKGAFQLYSKAIQRVTENNNKFSPHASTREYVMFRTPLASVQKSAAQTSLKKDAQTKLSNQGDQKGSTYSRHNEFSEVAKTLKKNESLKACIRCNSPAKYDCYLQRATCKREGCGFDYCTKCLCNYHTTKDCSDGKLLKASCKIGPLPGTKKSKKNLRRL
notes: Gal4 AD fusion in the two-hybrid screen; the clone appeared to be full length
B10: human F-box protein FBP2 (other)
chain: B5 chain

His-tagged Elongin C, sequence (Q15369 whole entry): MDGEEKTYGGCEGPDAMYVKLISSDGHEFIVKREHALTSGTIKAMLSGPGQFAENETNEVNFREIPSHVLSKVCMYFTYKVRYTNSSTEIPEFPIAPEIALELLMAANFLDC
human Cul2 (endogenous), sequence (Q13617 whole entry): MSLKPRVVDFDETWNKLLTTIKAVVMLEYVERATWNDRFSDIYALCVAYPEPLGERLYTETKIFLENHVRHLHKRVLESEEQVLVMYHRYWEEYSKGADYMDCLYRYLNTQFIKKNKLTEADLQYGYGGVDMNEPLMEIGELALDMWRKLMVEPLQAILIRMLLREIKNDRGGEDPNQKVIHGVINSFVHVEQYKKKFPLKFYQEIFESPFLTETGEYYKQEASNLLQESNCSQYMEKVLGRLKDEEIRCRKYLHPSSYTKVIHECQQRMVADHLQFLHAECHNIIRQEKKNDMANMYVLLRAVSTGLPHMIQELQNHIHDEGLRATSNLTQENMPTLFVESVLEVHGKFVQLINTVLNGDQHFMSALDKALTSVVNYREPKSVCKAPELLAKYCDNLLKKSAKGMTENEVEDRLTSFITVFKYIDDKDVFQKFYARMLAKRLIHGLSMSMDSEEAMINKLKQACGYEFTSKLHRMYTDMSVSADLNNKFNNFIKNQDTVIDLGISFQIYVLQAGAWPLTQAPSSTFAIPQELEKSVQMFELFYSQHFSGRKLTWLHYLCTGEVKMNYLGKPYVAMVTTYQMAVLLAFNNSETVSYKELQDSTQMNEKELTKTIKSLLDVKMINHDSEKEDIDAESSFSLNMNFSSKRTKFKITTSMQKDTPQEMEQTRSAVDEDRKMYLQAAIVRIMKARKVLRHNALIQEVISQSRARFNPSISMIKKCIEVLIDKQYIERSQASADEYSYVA
T1 sequence (Q13616 whole entry): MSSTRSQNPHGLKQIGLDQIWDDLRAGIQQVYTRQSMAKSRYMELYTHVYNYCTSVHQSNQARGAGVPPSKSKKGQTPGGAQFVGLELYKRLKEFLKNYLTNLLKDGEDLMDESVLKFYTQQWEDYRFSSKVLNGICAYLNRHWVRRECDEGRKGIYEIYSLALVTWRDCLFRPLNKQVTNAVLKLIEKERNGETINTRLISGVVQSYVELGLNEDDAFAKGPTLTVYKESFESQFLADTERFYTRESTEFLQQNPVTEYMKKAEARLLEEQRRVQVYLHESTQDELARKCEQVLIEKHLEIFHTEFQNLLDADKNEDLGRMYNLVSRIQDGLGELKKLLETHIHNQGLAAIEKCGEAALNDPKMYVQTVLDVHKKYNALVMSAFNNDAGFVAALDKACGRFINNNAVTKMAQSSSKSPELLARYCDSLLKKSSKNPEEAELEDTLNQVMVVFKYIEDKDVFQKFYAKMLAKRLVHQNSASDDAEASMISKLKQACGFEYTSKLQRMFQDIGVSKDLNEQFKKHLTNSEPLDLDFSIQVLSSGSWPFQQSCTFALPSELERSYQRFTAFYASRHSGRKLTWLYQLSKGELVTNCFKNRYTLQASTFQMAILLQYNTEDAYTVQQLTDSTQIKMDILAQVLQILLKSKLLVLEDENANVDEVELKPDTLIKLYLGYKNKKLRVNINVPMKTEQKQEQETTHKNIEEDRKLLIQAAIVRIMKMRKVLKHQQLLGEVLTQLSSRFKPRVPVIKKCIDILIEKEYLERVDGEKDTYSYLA

One test concerns the target human Cul2 (endogenous) (human, UniProt Q13617 1-745, limits assumed). Description: anti-Flag co-immunoprecipitation from transfected HeLa cells, anti-Cul2 immunoblot. The text has this:
(§1) HeLa cells were transfected with mammalian expression plasmids encoding Flag-tagged versions of FBP1 (lane 1), (ΔF)FBP1 (lane 2), FBP4 (lane 3), FBP7 (lane 5), FBP2 (lane 7), (ΔF)FBP2 (lane 8), FBP3a (lane 9), (ΔF)FBP3a (lane 10), or with an empty vector (lanes 4 and 6). Cells were lysed and extracts were subjected to immunoprecipitation with a rabbit anti-Flag antibody (lanes 1-8). Immunoprecipitates were then immunoblotted with a mouse anti-Cul1 monoclonal antibody, a rabbit anti-Skp1 polyclonal antibody or a rabbit anti-Cul2 polyclonal antibody, as indicated. The last lane contains 25 μg of extracts from non-transfected HeLa cells; […] contains recombinant Cul1, Skp1, or Cul2 proteins used as markers.
A general note: Immunoblotting shows a protein as a band on a membrane.
Take B1: the binding result is “no binding”.
Same read-out and setting: in the case of B2 it was “no binding”; in that of B3, “no binding”.
Same read-out and setting: in the case of B4 it was “no binding”; in that of B5, “no binding”.

A further test has as its target T1, human Cul1 (endogenous) (human, UniProt Q13616 1-776).
T1 construct: A slower migrating form is said to be likely modified by a ubiquitin-like molecule
Description: anti-Flag co-immunoprecipitation from transfected HeLa cells, anti-Cul1 immunoblot.
Excerpt: as §1
Turning to B6, the binding result is listed as “no binding”.

Another test has as its target His-tagged Elongin C (human, UniProt Q15369 1-112). The experiment in a line: pull-down of in vitro translated 35S-FBP on His-Elongin C Nickel-agarose beads. The method, then:
FIG. 29. FBPs interact specifically with Skp1 through their F-box. The cDNAs of FBPs (wild type and mutants) were transcribed and translated in vitro (IVT) in the presence of 35S- methionine. […] Bound IVT proteins were analyzed by SDS-PAGE and autoradiography. The arrows on the left side of the panels point to the indicated FBPs. The apparent molecular weights of the protein standards are indicated on the right side of the panels.
As examples of the human FBP family, a more detailed characterization of some FBPs was performed. To confirm the specificity of interaction between the novel FBPs and human Skp1, eight in vitro translated FBPs were tested for binding to His-tagged-Skp1 pre-bound to Nickel-agarose beads. As a control Elongin C was used, the only known human Skp1 homolog.
For the molecule B7, the binding result is recorded as “no binding”.
Same read-out and setting: in the case of B8 it was “no binding”.
On the same count and under the same terms, the entry for B9 is “no binding”.
In the case of B10, the binding result is on record as “no binding”.
